Test results: publication PMC4661009, “Synthesis of α,β-unsaturated esters via a chemo-enzymatic chain elongation approach by combining carboxylic acid reduction and Wittig reaction” (Beilstein Journal of Organic Chemistry, 2015)

Substrate: O=C(O)c1ccccc1
Experiment: steady-state kinetics of carboxylic acid reduction
Type: biochemical, Mycolicibacterium neoaurum
Settings: His-tagged CAR, holo form after PPTase/CoA treatment; ATP, NADPH, Mg2+ as cofactors; assay pH and temperature for Km not in main text

B1: Mycobacterium CAR (Mycolicibacterium neoaurum VKM Ac-1815D) (protein)
chain: MFAENLDDQQRLADLYATDPEFAAAAPDPAIADAVAAPEMRLPEIIRTVLTGYAERPALGSRAVQLVTDEATGRTRAELLGHFETITYGQLWDRVRAVTNAWSDTVRPGDRVAILGFGSVDFTVIDIALTQLGAVSVPLQTSATAAALAPIVAETEPALIASDVNHLDDAVTLALESGVATVVVFDQNPAVDDDREAIAAATARLDGQTLATLDEVIAAGAERPDVAIPAQEGDPLSLLIYTSGSTGAPKGAMYPQGKVADIWRPAINSHWDARQGHVPAIVLSFMPMSHVMGRGILYASLASGGVVNFAARADLSTLLEDLALTRPTQLNFVPRVWDMLFQDYQSRAAHGGSEADILADMRTNLLGGRYVSALTGSAPISPELKAWVERLLDLHLVEGYGSTEAGAVFVDGQISRPPVLEYKLVDVPELGYHSTDVPHPRGELLIRSEQLFPGYYKRPEVTASVFDEDGFYRTGDIVAELGPDQVAYIDRRNNVLKLSQGEFVTVSKLEAVFNTAPLVHQIYIYGNSARPYLLAVVVPTDPAATKAEIADALKAAARKADLQSYELPRDFLVETQEFTTENGLLTGIKKLAWPKLKERYGAELEQLYTDLADGQAGELQALRATGADAPVLETVGRAAVALLGAASSDIAPDVHFTDLGGDSLSALTFGNLLADIFDVEVPVSVIVSPTADLASIAAHIETQRSGSGLRPSFASVHGKDATVARAADLTLDKFIDAETLAAAGDLAGPATNVRTVLLTGATGFLGRYLALEWLERMNLVDGKVIALVRARSDAEARARLDATFDTGDPKLVAHYRELADKHLEVLAGDKGEHDLGLDRQTWQRLADTVDLIVDPAALVNHVLPYNELFGPNALGTAELIRVALTTRIKPFVYVSTIGVGAGIEPGRFVEDADIREISATRVLDDSYANGYGASKWAGEVLLREAHEQFGLPVSVFRCDMILADTSYAGQLNLPDMFTRMMLSLVATGIAPKSFNQLDAQGNRQRSHYDGLPVEFIAEAISTLGADVTDGFETYHVMNPHDDGLGLDEFVDWLVDAGHPIRRIDDYQAWFEQFGATLRTLPDRQRQASLLPLLHNYTTPGQPVNGAMAPTDVFRTAVQEAKIGPDKDIPHVSRDVIVKYVTDLQLLGLL
notes: full-length gene in pET30b(+) (NdeI/XhoI), His-tagged, E. coli BL21(DE3), tag kept; monomer, theoretical 125 kDa; holo form made with Nocardia PPTase (ABI83656.1) and CoA
Km: 1750 ± 160 µM
